These results are taken from paper PMC4666138 (Molecular Biology of the Cell, 2015).

The labels stand for the following.
B1: FLAG-tagged UBAC2 (recombinant, WT) (natural protein)
chain: HCQKLFVYDLHAVKNDFQIWRLICGRIICLDLKDTFCSSLLIYNFRIFERRYGSRKFASFLLGSWVLSALFDFLLIEAMQYFFGITAASNLPSGFLAPVFALFVPFYCSIPRVQVAQILGPLSITNKTLIYILGLQLFTSGSYIWIVAISGLMSGLCYDSKMFQVHQVLCIPSWMAKFFSWTLEPIFSSSEPTSEARIGMGATLDIQRQQRMELLDRQLMFSQFAQGRRQRQQQGGMINWNRLFPPLRQRQNVNYQGGRQSEPAAPPLEVSEEQVARLMEMGFSRGDALEALRASNNDLNVATNFLLQH
B2: FLAG-tagged UbxD8 (wild type) (natural protein)
chain: MAAPEERDLTQEQTEKLLQFQDLTGIESMDQCRHTLEQHNWNIEAAVQDRLNEQEGVPSVFNPPPSRPLQVNTADHRIYSYVVSRPQPRGLLGWGYYLIMLPFRFTYYTILDIFRFALRFIRPDPRSRVTDPVGDIVSFMHSFEEKYGRAHPVFYQGTYSQALNDAKRELRFLLVYLHGDDHQDSDEFCRNTLCAPEVISLINTRMLFWACSTNKPEGYRVSQALRENTYPFLAMIMLKDRRMTVVGRLEGLIQPDDLINQLTFIMDANQTYLVSERLEREERNQTQVLRQQQDEAYLASLRADQEKERKKREERERKRRKEEEVQQQKLAEERRRQNLQEEKERKLECLPPEPSPDDPESVKIIFKLPNDSRVERRFHFSQSLTVIHDFLFSLKESPEKFQIEANFPRRVLPCIPSEEWPNPPTLQEAGLSHTEVLFVQDLTDE

One assay deals with FLAG-tagged gp78 (UniProt Q9UKV5 1-643). Briefly: co-IP.
The target in assay [1] is B2. Briefly: co-IP.

Usually stoichiometry N stands for the number of molecules, sites or subunits per partner or assembly.

Chain of FLAG-tagged gp78 (Q9UKV5 whole entry): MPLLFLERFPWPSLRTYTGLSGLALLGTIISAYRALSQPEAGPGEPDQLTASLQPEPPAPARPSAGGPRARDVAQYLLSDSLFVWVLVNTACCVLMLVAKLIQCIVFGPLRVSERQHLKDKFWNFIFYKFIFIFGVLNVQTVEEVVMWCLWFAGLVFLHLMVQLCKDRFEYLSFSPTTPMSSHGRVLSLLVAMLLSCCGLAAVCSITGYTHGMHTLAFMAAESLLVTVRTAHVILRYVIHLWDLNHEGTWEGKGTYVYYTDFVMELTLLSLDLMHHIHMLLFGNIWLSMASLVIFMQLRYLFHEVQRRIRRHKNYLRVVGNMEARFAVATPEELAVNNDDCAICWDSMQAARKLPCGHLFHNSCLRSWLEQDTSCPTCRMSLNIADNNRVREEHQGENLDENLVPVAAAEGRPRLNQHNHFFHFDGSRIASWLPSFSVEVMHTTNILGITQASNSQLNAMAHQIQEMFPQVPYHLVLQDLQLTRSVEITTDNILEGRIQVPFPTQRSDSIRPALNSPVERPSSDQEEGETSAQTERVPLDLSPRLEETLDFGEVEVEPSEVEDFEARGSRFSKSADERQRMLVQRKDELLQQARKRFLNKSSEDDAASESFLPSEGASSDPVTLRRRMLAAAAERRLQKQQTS

In the case of B1, the “stoichiometry N” value was about 2 UBAC2 per gp78 in the assay with FLAG-tagged gp78 and about 2 UBAC2 per UbxD8 in assay [1].

Take B2: the “stoichiometry N” value with FLAG-tagged gp78 was about 1 UbxD8 per gp78.
